The values below come from publication PMC3562662.

Substrate in this data set: O=C(O)/C=C/c1ccc(O)c(O)c1
Kind of data set: radiometric methyltransferase assay, scintillation counting, nonlinear Michaelis-Menten fit. It counts as biochemical, Brachypodium distachyon. Conditions: co-substrate S-[methyl-14C]-adenosyl-L-methionine plus unlabeled SAM, 0.1 M Tris-HCl pH 7.5, 30°C, 20 min, methods heading b55 names BdCOMT1.

B1: BdCOMT4 (Brachypodium distachyon) (protein)
chain: MGSTAADMAATADEEACMFALQLASSSILPMTLKNAIELGLLDTLVQASGKSLTPAEVAAKLPSSSNPAAPDMVDRMLRLLASYGVVSCAVEEGENGKLSRRYAAAPVCKWLTPNEDGVSMAALALMNQDKVLMESWYYLKDAVLDGGIPFNKAYGMSAFEYHGTDPRFNRVFNEGMKNHSIIITKKLLDLYPGFEGLGTLVDVGGGVGATVGAIVARHPAIKGINFDLPHVISEGIPFPGVTHVGGDMFQKVPSGDAILMKWILHDWSDAHCATLLKNCYDALPAHGKVVIVECILPVNPEATPKAQGVFHVDMIMLAHNPGGKERYEREFEELARGAGFTGVKATYIYANAWAIEFTK
notes: full-length cDNA (from Bd21-3 plants) in pQE-T7-1, NdeI/XhoI, His-tagged; primer adds Met-Lys-Gln before native Met; expressed in E. coli, Ni-NTA purified
With B1, the Km was 187 µM.

The Km is the substrate concentration at which the rate is half of its maximum.
